Assay results: patent publication US20110008841A1 (Amgen, published 2011)
Numbering of substitutions follows the chain as printed.

B1: AMH11/AML11 (antibody, IgG2, V domains shown)
VH: QVQLVESGGGVVQPGRSLRLSCATSGITFSSYGMHWVRQAPGKGLEWVAVIWYDGSNKYYADSVKGRFTISRDNSKNTLYLQMNSLRAEDTAVYYCARDTKDYWGQGTLVTVSS
VL: EIVMTQSPATLSVSPGERATLSCRASQSVSSNLAWYQQKPGQAPRLLIYGASTRAAGIPARFSGGGSGTAFTLTISNLQSEDFAVYYCQHYINWPKWTFGQGTKVDIK
notes: Fully human mAb from IgG2 XenoMouse mice; also called AM-11; antibody A
B2: Germline version A (antibody, V domains shown)
VH: QVQLVQSGAEVKKPGASVKVSCKASGYTFTRYGISWVRQAPGQGLEWMGWISTYSGNTNYAQKLQGRVTMTTDTSTSTAYMELRSLRSDDTAVYYCARRQLYFDYWGQGTLVTVSS
VL: EIVMTQSPATLSVSPGERATLSCRASQSVSSNLAWYQQKPGQAPRLLIYDASTRATGIPARFSGSGSGTDFTLTISSLQSEDFAVYYCQQYDNWPLTFGGGTKVEIK
B3: AMH22/AML22 (antibody, IgG2, V domains shown)
VH: B2 VH with T53A
VL: B2 VL with A19V, Y36F, L46P, T56A
notes: Fully human mAb from IgG2 XenoMouse mice; also called AM-22; antibody I
B4: AMH17/AML17 (antibody, V domains shown)
VH: B2 VH with S17A, S25T, F29L, R31S, T53A, N59K, R99K, Y102V
VL: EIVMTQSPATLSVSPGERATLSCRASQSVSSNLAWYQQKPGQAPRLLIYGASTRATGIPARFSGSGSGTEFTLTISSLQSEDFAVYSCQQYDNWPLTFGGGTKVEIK
notes: Fully human mAb from IgG2 XenoMouse mice; also called AM-17; antibody N
B5: AMH15/AML15 (antibody, V domains shown)
VH: QVQLVESGGGVVQPGRSLRLSCAASGFTFSSYGMQWVRQAPGKGLEWVAVIWYDGNKKYYADSVKGRFTISRDNSKNTLYLQMNSLRAEDTAVYYCARGRVRDYYYGMDVWGQGTTVTVSS
VL: B2 VL with A19V, Y36F, L46P, T56A
notes: also called AM-15
B6: Germline version B (antibody, V domains shown)
VH: B2 VH
VL: B2 VL with D70E
B7: AMH12/AML12 (antibody, IgG2, V domains shown)
VH: B2 VH with F29L, R31S, S55K, R99K, Y102V
VL: B2 VL with V29I, N32S, D50G, D70E, D82N
notes: Fully human mAb from IgG2 XenoMouse mice; also called AM-12; antibody M
B8: AMH14/AML14 (antibody, V domains shown)
VH: B2 VH
VL: B2 VL with Y36F, L46P, I58V
notes: Fully human mAb from IgG2 XenoMouse mice; Biotinylated in the Octet assay; also called AM-14; antibody K
B9: AMH16/AML16 (antibody, IgG2, V domains shown)
VH: B2 VH with R31S, T53A, S55N, N59K, A79V, R99K, Y102V
VL: B2 VL with V29I, S31T, N32S, D50G, A51T, D70E, Y87F, N93I
notes: Fully human mAb from IgG2 XenoMouse mice; also called AM-16; antibody O
B10: AMH5/AML5 (antibody, V domains shown)
VH: QVQLQESGPGLVKPSETLPLTCTVSGGSIRSYYWSWIRQPAGKGLEWIGRIYRSGNTIYNPSLKSRVTMSIDTSKNQFSLTLSSVTAADTAVYYCARENYSESSGLYYYYGMDVWGQGTTVTVSS
VL: DIQMTQSPSSLSASVGDRVTITCRASQGIRNDLGWYQQKPGKAPKRLIYAASSFQSGVPSRFSGSGSGTGFTLTISSLQPEDFATYYCLQHNSYPPTFGQGTKVEIK
notes: also called AM-5
B11: AMH1/AML1 (antibody, IgG2, V domains shown)
VH: QVQLQESGPGLVKPSETLSLTCTVSGGSISNYYWNWIRQSPGKGLEWIGDIYYSGSTNYNPSLKSRVTISVDTSKNQFSLKLSSVTTADTAVYYCARDGELANYYGSGSYQFYYYYGMDVWGQGTTVTVSS
VL: B10 VL with Q3L, F54L, G70E, Y94N, P96F, Q100P, E105D
notes: Fully human mAb from IgG2 XenoMouse mice; also called AM-1; antibody H
B12: AMH21/AML21 (antibody, IgG2, V domains shown)
VH: EVQLVESGGGSVQPGGSLRLSCAASGFTFSSYSMNWVRQAPGKGLEWVSIISSRSSIIHYADSVKGRFTISRDNAKNSLYLQMNSLRDEDTAVYYCARPKVGGGMDVWGQGTTVTVSS
VL: DIQMTQSPSSLSASVGDRVTITCRASQGISNYLAWYQQKPGKFPELLIYAASTLQSGVPSRFSGSGSGTDFTLTISSLQPEDVATYYCQKYNRAPFTFGPGTKVDIK
notes: Fully human mAb from IgG2 XenoMouse mice; also called AM-21; antibody Q
B13: AMH13/AML13 (antibody, IgG2, V domains shown)
VH: B5 VH
VL: DIVMTQTPLSLSVTPGQPASIACKSSQSLLHSDGKTYLYWYLQKPGQPPQLLIYEVSTRFSGVPDRFSGSGSGTDFTLKISRVEAEDVGVFYCMQSIQLPLTFGGGTKVEIK
notes: Fully human mAb from IgG2 XenoMouse mice; also called AM-13

How the values were obtained:
[1] = target: T1, cynomolgus IL-17RA on cells (cynomolgus); experiment: FACS, biotin-huIL-17A on cyno IL-17RA+ cells with non-clonal supernatant; lower = more inhibition
T1 construct: whole, on cells; also called CHO-cynoIL-17RA; cyno IL-17RA+ CHO cells

[2] = target: Human IL-17RA full-length expressed on the surface of cells (human, UniProt Q96F46 33-866); experiment: cell-based or functional assay
[3] = target: T1, cynomolgus IL-17RA on cells; experiment: FACS, biotin-huIL-17A on cyno IL-17RA+ CHO cells with non-clonal supernatant; lower = more inhibition
Procedure: Non-clonal hybridoma supernatants were prepared in volumes of 1-2 mls (the Ig concentrations were not determined for these supernatants). […] Anti-IL-17RA non-clonal hybridomas were selected for sub-cloning based on their performance in the CHO-IL-17RA FACS assay and HFF bioassay.

[4] = target: T1, cynomolgus IL-17RA on cells; experiment: as above; remark: listed apart in the source
Procedure: The anti-IL-17RA antibodies were characterized. Non-clonal hybridoma supernatants were prepared in volumes of 1-2 mls (the Ig concentrations were not determined for these supernatants).

Binder | MFI [1] | MFI [3] | other results
B1 | 9 |  | 
B2 |  |  | IC50, HFF bioassay (ligand not named on the sheet) [2]: ~0.107 µM
B3 | 18 |  | 
B4 |  | 8 | 
B5 |  |  | MFI [4]: 6
B6 |  |  | IC50, HFF bioassay (ligand not named on the sheet) [2]: ~0.103 µM
B7 |  | 6 | 
B8 |  |  | MFI [4]: 10
B9 |  | 6 | 
B10 | 9 |  | 
B11 | 11 |  | 
B12 |  |  | MFI [4]: 6
B13 |  | 6 | 
